Results on 1 protein are retold here after article PMC11577821.

Substrate in series [1]: O=C1CC(O)(c2ccc(O)cc2)Oc2cc(O)cc(O)c21
Nature of the series: purified protein. The note with it: UDP-Glc as sugar donor; C-glucosylation.

Substrate in series [2]: O=C(CCc1ccc(O)cc1)c1c(O)cc(O)cc1O
Put plainly: purified protein. As to conditions: UDP-Glc as sugar donor; C-glucosylation.

B1: UGT708S6 (Dendrobium catenatum) (protein)
chain: MSSGDTNLPRVLLLPSSGMGHLVPFVRLASALSERCISVSLLAVRPTISAAESLLLSSLPSSLLLDFPIKPLDPSLFPPSSDPFFLQMEALRRSADLLPSFISTCSPPVSSLIIDISIASSFLPVAAAAKIPCFVLFTSSASMLALCSVFAFLSTPTAGADVNIAGGVLKIPTSSLPPPLRDPNHLFTTQFVENGRALAQANGILVNTFSALEPEVLVALNSGAVLPGLPPVIAIGPLPPVKKQPSLPSPALRWLDEQQEKSVMYVSFGSRTAMSKEQIRALGAGLENSGCRFFWVVKSAKVDREEVMEIEELLGEEYAKRVEERGLVVKEWVEQEVVLSHRAVAGFMSHCGWNSVTEAAAAGVRILAWPRMGDQRVNAAVVARSGLGIWPEKWAWEAEERVVAAEEIAVKVREMMRDERLAETAAQVQAEATAAVQEGGSLDQSCGYLLKKL
Regarding B1, in the series “purified protein [1]”, the Km (commonly the substrate concentration at which the rate is half of its maximum) is 276.900 µM; the Vmax (in general, the top rate of the reaction or transport when substrate is in excess) was 7.68 µM/min; the catalytic constant (kcat) (in general, the maximal rate divided by the concentration of active sites) amounted to 0.907 s⁻¹; the kcat/Km – broadly, the turnover number divided by the Michaelis constant – turned out to be 3280 M⁻¹ s⁻¹. In “purified protein [2]”, the Km worked out at 545.831 µM, the Vmax came out at 9.48 µM/min, the catalytic constant (kcat) was determined as 0.563 s⁻¹ and the catalytic efficiency (kcat/Km) amounted to 1030 M⁻¹ s⁻¹.
